Measurements reported in US20230052646A1 (JJP BIOLOGICS SP Z O O, published 2023).

Assays:
[1] = target: T1, membrane-bound full-length cynomolgus monkey HVEM on transiently transfected HEK293F cells (cynomolgus monkey (Macaca fascicularis)); test: FACS, undiluted hybridoma supernatant
T1 construct: also called cynomolgus HVEM
T1 chain: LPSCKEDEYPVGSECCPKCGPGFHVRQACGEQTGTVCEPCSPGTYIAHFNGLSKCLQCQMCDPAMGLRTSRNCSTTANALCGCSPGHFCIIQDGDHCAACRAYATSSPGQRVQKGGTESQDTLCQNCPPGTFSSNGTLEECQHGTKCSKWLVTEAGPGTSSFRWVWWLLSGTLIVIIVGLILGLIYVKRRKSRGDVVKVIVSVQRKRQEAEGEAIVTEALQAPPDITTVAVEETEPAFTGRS
Protocol: Generation of human ‘full-length’ HVEM-transfected HEK293F cells (clone no. 128) is described in Example 1a. […] After 72 hours, surface cynomolgus monkey HVEM expression on transfected cells was analysed by FACS analysis. To this end, stable human full-length HVEM-transfected HEK293F cells and transient cynomolgus monkey full-length HVEM-transfected HEK293F cells were put at 10×10⁶ cells/mL in ice-chilled phosphate-buffered saline containing 0.1% BSA (Sigma)/0.05% NaN₃ (PBS/BSA/NaN₃) supplemented with 50 μg/mL human IgGs (blocking of possible Fcγ receptors; Sigma) for 10 minutes at 4° C. Then, 10 μL/tube (i.e., 0.1×10⁶ cells) of these cells were incubated with 100 μL undiluted hybridoma supernatant/tube for 30 minutes at 4° C. Phycoerythrin (PE)-conjugated mouse anti-human HVEM antibody (clone eBioHVEM-122; eBioscience) at 1:20 was run as a positive control antibody. After extensive washing in PBS/BSA/NaN₃, cells were subsequently incubated with 1:200 diluted PE-conjugated goat anti-mouse IgG Fcγ-specific antibodies (Jackson ImmunoResearch) for 30 minutes at 4° C. After extensive washing in PBS/BSA/NaN₃, cells were fixed in 2% formaldehyde in PBS/BSA/NaN₃ for 30 minutes at 4° C. Binding of antibodies was measured using a flow cytometer (model FACSCalibur; BD Biosciences).

[2] = target: T2, membrane-bound full-length human HVEM on stable HVEM-transfected HEK293F cells (clone no. 128) (human, UniProt Q92956 39-283); test: FACS titration on HVEM-HEK293F, half-maximum binding
T2 construct: The same cDNA was also expressed on Sf9 insect cells; also called TNFRSF14; CD270
T2 sequence: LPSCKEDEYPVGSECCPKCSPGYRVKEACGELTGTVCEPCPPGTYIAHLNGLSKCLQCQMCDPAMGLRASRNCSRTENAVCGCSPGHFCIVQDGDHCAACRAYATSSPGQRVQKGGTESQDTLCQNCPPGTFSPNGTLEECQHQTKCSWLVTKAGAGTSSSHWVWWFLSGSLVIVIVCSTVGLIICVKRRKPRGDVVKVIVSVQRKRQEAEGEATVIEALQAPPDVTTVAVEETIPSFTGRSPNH
Protocol: In order to determine the relative binding affinity of purified BTLA/HVEM blocking chimeric mouse/human anti-human HVEM antibodies no. 36H12, 45H6, 48H6, 11H7, and 49G4 for human HVEM, FACS analysis was used.
To this end, stable human full-length HVEM-transfected HEK293F cells (clone no. 128; see Example 1(a) above) were put at 10×10⁶ cells/mL in ice-chilled PBS containing 0.1% BSA (Sigma)/0.05% NaN₃ (PBS/BSA/NaN₃) supplemented with 50 μg/mL human IgGs (blocking possible Fcγ receptors; Sigma) for 10 minutes at 4° C. Then, 10 μL/tube (i.e., 0.1×10⁶ cells) of these cells were incubated with or without 100 μL titrated (in PBS/BSA/NaN₃) purified BTLA/HVEM blocking chimeric mouse/human anti-human HVEM antibody/tube for 30 minutes at 4° C. After extensive washing in PBS/BSA/NaN₃, cells were subsequently incubated with 1:200 diluted PE-conjugated goat anti-human IgG Fcγ-specific antibodies (Jackson ImmunoResearch) for 30 minutes at 4° C. After extensive washing in PBS/BSA/NaN₃, cells were fixed in 4% formaldehyde in PBS/BSA/NaN₃ for 30 minutes at 4° C. Binding (geo-mean fluorescence intensity) of chimeric mouse/human anti-human HVEM antibodies no. 36H12, 45H6, 48H6, 11H7, and 49G4 on membrane human HVEM was measured using a flow cytometer (FACSCalibur; BD Biosciences). For comparison, purified BTLA/HVEM blocking mouse anti-human HVEM antibody counterparts no. 36H12, 45H6, 48H6, 11H7, and 49G4 were run in parallel, and their binding was monitored as described in Example 2 (a).

binding result [1]: no binding
EC50 [2]: 0.43 µg/mL
B1: mouse anti-human HVEM antibody no. 36H12 (antibody, mouse IgG1, V domains shown)
VH: EVQLQQSGAGLVKPGASVKLSCTASGFNIKDTYMHWVRQRPEQGLEWIGRIDPATANTKYDPKFQGKATLTTDTSSNTAYLQLSSLTSEDTAVYYCVTYGYDVSWFAYWGLGALVTVSA
VL: DVLMTQTPLSLPVSLGDQASISCRSSQSIVHSNGITYLEWYLQKPGQSPKLLIYKVSNRFSGVPDRFSGSGSGTDFTLKISRVEAEDLGVYYCFQGSHVPLTFGAGTKLELK
notes: mouse IgG1/kappa; also called 36H12 (mouse)
